According to the supplement of paper PMC10899765:

Columns and labels:
Conditions in all cases: 20 nM; 72 h
[1] = tested on: MCF10A; experiment: 5+ nucleoli phenotype percent effect (relative to siNT 0% and siKIF11 100%); higher = more cells with five or more nucleoli
Method: (§1)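 After 72 h, cells were fixed and stained with Hoechst and anti-fibrillarin, and nucleoli per nucleus were counted with CellProfiler. Values are plate-adjusted percent effect for the one-nucleolus and 5+ nucleoli phenotypes, normalised to siNT (0%) and to the positive controls siNOL11 or siKIF11 (100%), as the mean of biological triplicates. Percent viability is the nuclei count relative to siNT.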

[2] = tested on: MCF10A; experiment: percent viability (nuclei count relative to siNT); higher = more viable cells
Method: as §1

[3] = tested on: MCF10A; experiment: one-nucleolus phenotype percent effect (relative to siNT 0% and siNOL11 100%); higher = more cells with one nucleolus (ribosome biogenesis inhibition)
Method: as §1

Sequence | 5+ nucleoli phenotype percent effect [1] | percent viability [2] | one-nucleolus phenotype percent effect [3]
UGAGGUAGGAGGUUGUAUAGUU [hsa-let-7e-5p] | 48.7% | 23% | -8.3%
GGGACUAGGAUGCAGACCUCC [hsa-miR-6503-3p] | -6.73% | 49.8% | 9.94%
AGAGGUAGGUGUGGAAGAA [hsa-miR-4458] | 36.9% | 42.7% | -20.7%
GAGGCUGAUGUGAGUAGACCACU [hsa-miR-3929] | -13.8% | 30.5% | 14.1%
GCUAGUCCUGACUCAGCCAGU [hsa-miR-554] | 10.2% | 67.7% | -12.9%
CUCUAGAGGGAAGCGCUUUCUG [hsa-miR-519c-5p] | -10.6% | 31.6% | 1.39%
UUGAAAGGCUAUUUCUUGGUC [hsa-miR-488-3p] | -44.7% | 36.8% | 39.9%
UCUGAGGUGGAACAGCAGC [hsa-miR-7162-3p] | -23% | 27.2% | 19.5%
GUUGGGACAAGAGGACGGUCUU [hsa-miR-3122] | 22.1% | 87.3% | -20.5%
AAUCCACGCUGAGCUUGGCAUC [hsa-miR-5092] | -4.16% | 22.3% | 14.7%
GACUGACACCUCUUUGGGUGAA [hsa-miR-888-3p] | 8.85% | 84.1% | -18.1%
ACCAGCGCGUUUUCAGUUUCAU [hsa-miR-4738-5p] | 13.4% | 51.5% | 7.61%
UAGCCUUCAGAUCUUGGUGUUUU [hsa-miR-3614-3p] | -23.5% | 51.5% | 28.6%
UAUCAUGGAGUUGGUAAAGCAC [hsa-miR-2681-3p] | 14.2% | 62.4% | -14.9%
UUAGGGCCCUGGCUCCAUCUCC [hsa-miR-1296] | 13.2% | 39.5% | 8%
UGGCUGUUGGAGGGGGCAGGC [hsa-miR-4687-3p] | -1.42% | 23.1% | 25.6%
UGGGGAGGUGUGGAGUCAGCAU [hsa-miR-6825-5p] | 1.61% | 22.4% | 37.7%
AACAUUCAACCUGUCGGUGAGU [hsa-miR-181c-5p] | 3.6% | 79% | 6.56%
GUCCAGUUUUCCCAGGAAUCCCU [hsa-miR-145-5p] | -1.55% | 70.4% | -4.84%
UCCUGUCCCUGUCUCCUACAG [hsa-miR-6748-3p] | 17% | 47% | -15.9%
